These are literature values, as cited in paper PMC7062049.

The data set has as its target HP1β CSD (Mus musculus) (UniProt P83917).

Take HP1β CSD (from UniProt P83917): the Kd (as a rule, the free concentration of one partner at which half of the binding sites on the other are occupied at equilibrium, for simple one-to-one binding) is 150 nM.
